Data: patent US20240060043A1

Molecular target: FMC63 protein (Example 2)
Test: ELISA, 500 ng/well coated FMC63, fresh biotinylated fusion protein at 500 or 0.5 ng/well, 4° C.

With “TNF-α:CD19 ECD fusion protein (ClonedTNFFP)” the fold increase in absorbance over wells without fusion protein was > 7 fold.
